According to the supplement of paper PMC10065799, “High-throughput profiling of sequence recognition by tyrosine kinases and SH2 domains using bacterial peptide display” (eLife, 2023):

Key:
[1] = tested on: Fer (mouse); test: phosphorylation enrichment, bacterial display (enrichment ratio); higher = better substrate or ligand; peptides without Tyr show the background
[2] = tested on: AncSZ; test: as above
[3] = molecular target: Hck (UniProt P08631); test: as above
[4] = molecular target: EPHB1 (UniProt P54762); test: as above
[5] = molecular target: FGFR1 (UniProt P11362); test: as above
[6] = tested on: c-Src; test: as above
[7] = molecular target: Fyn (UniProt P06241); test: as above
[8] = molecular target: Fes (UniProt P07332); test: as above
[9] = molecular target: FGFR3 (UniProt P22607); test: as above
[10] = molecular target: Jak2 (UniProt O60674); test: as above
[11] = molecular target: MERTK (UniProt Q12866); test: as above
[12] = tested on: c-Abl (mouse); test: as above
[13] = molecular target: EPHB2 (UniProt P29323); test: as above
[14] = molecular target: c-Src SH2; test: SH2 binding enrichment of the phosphorylated peptide, bacterial display (enrichment ratio); higher = better substrate or ligand; peptides without Tyr show the background
[15] = molecular target: SHP2-C SH2; test: as above
[16] = molecular target: Grb2 SH2 (UniProt P62993); test: as above
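Wherever SH2 binding enrichment of the phosphorylated peptide, bacterial display is given: peptide library displayed on the E. coli surface as eCPX fusions, selected cells deep-sequenced, score is each peptide's frequency after selection divided by its frequency in the input.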
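Wherever phosphorylation enrichment, bacterial display is given: 11-residue human phosphosite peptides and single-mutation variants displayed on the E. coli surface, counted by deep sequencing, each peptide's frequency after selection divided by its frequency in the unselected input library; frequency after pTyr selection over input frequency; kinase dosed for 20-30% of maximal phosphorylation in three min.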

Chain of Fes (P07332 whole entry, looked up): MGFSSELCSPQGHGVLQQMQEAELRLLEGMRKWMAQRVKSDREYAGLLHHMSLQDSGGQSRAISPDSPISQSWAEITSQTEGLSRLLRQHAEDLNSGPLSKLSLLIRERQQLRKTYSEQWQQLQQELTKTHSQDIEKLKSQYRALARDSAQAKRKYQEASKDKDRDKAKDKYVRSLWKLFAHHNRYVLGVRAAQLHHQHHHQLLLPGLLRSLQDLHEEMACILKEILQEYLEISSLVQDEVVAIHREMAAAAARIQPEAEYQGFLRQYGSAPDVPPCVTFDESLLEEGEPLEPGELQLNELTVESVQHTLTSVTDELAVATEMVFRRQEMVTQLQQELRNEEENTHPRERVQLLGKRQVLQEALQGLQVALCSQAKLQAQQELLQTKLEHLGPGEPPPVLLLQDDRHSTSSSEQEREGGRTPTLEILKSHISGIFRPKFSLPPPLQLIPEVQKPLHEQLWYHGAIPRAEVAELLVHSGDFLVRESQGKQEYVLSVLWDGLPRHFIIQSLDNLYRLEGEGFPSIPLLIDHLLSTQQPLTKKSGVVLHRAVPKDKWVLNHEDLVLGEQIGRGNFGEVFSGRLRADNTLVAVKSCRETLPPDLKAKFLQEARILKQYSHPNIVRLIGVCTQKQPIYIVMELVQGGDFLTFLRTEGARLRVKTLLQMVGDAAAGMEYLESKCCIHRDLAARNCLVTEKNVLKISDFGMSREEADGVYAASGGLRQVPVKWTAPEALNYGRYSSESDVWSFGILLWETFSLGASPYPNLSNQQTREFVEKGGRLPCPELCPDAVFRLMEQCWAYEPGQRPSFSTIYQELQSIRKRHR
Chain of FGFR1 (P11362 whole entry, looked up): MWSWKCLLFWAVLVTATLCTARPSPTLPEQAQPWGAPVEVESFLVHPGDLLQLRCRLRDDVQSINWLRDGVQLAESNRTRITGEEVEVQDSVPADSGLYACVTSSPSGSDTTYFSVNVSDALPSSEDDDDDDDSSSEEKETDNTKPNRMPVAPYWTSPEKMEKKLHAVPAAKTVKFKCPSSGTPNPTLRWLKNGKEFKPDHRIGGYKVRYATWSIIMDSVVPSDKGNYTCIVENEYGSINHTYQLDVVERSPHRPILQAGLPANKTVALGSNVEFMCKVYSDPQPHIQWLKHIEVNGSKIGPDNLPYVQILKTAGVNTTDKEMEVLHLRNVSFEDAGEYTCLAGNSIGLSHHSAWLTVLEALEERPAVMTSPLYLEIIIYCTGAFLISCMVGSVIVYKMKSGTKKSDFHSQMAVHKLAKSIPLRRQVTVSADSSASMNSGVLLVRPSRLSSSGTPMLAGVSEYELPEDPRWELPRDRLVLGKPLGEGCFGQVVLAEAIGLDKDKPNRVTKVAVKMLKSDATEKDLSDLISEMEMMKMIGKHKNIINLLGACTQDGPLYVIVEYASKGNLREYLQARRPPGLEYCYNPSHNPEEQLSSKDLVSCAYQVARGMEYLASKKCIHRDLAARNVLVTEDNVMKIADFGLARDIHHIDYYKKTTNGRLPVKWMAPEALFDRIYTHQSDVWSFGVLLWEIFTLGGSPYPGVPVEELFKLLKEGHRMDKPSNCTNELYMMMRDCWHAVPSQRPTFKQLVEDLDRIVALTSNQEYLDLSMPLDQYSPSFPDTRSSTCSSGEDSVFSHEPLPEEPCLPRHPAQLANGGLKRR
Chain of Hck (P08631 whole entry, looked up): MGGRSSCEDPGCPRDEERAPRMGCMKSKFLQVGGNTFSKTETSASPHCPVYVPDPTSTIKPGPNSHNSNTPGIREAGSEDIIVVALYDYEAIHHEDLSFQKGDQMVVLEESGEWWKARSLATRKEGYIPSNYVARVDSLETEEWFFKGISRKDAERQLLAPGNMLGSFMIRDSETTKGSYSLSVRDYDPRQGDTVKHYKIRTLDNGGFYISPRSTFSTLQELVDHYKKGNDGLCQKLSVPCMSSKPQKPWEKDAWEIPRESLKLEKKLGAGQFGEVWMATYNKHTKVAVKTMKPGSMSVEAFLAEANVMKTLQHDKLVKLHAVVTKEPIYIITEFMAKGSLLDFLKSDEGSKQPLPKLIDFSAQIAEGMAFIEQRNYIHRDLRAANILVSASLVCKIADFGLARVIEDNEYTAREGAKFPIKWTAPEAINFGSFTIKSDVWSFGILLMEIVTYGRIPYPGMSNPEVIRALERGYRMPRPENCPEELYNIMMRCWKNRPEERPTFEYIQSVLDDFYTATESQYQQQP
Chain of Grb2 SH2 (P62993 whole entry, looked up, the tested form may be a part): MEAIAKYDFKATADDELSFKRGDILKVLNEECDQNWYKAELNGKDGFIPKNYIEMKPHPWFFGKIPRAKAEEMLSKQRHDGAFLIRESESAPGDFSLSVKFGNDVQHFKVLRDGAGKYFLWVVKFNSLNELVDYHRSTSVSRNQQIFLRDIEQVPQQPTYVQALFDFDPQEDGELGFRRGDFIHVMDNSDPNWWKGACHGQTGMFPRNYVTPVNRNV
Chain of Jak2 (O60674 whole entry, looked up): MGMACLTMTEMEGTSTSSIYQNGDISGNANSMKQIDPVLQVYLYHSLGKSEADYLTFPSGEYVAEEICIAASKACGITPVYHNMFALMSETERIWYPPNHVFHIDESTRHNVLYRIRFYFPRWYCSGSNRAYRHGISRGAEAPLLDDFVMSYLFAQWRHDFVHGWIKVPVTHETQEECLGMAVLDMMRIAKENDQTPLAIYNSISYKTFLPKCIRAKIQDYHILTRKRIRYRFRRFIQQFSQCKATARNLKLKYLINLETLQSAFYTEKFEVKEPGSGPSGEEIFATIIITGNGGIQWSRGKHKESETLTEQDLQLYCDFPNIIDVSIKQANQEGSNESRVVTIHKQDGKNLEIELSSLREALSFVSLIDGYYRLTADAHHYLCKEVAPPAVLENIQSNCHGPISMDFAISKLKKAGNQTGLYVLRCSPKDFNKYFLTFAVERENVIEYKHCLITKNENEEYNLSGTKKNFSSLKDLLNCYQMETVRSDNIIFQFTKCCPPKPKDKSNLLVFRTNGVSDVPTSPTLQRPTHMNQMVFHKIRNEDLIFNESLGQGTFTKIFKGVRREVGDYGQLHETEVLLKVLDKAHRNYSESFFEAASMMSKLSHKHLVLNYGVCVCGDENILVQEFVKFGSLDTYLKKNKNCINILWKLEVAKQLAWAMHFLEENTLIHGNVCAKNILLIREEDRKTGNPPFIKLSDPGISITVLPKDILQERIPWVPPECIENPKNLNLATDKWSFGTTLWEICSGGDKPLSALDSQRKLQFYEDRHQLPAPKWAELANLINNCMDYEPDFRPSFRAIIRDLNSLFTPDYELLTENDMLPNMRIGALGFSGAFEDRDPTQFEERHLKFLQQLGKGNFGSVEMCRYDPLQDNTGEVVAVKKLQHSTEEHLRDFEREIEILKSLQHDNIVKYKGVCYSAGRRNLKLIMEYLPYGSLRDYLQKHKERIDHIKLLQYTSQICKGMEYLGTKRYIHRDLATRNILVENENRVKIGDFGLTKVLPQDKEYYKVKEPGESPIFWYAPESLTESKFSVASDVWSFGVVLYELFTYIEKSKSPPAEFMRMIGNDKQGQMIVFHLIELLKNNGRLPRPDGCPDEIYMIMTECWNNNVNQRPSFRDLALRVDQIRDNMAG
Chain of MERTK (Q12866 whole entry, looked up): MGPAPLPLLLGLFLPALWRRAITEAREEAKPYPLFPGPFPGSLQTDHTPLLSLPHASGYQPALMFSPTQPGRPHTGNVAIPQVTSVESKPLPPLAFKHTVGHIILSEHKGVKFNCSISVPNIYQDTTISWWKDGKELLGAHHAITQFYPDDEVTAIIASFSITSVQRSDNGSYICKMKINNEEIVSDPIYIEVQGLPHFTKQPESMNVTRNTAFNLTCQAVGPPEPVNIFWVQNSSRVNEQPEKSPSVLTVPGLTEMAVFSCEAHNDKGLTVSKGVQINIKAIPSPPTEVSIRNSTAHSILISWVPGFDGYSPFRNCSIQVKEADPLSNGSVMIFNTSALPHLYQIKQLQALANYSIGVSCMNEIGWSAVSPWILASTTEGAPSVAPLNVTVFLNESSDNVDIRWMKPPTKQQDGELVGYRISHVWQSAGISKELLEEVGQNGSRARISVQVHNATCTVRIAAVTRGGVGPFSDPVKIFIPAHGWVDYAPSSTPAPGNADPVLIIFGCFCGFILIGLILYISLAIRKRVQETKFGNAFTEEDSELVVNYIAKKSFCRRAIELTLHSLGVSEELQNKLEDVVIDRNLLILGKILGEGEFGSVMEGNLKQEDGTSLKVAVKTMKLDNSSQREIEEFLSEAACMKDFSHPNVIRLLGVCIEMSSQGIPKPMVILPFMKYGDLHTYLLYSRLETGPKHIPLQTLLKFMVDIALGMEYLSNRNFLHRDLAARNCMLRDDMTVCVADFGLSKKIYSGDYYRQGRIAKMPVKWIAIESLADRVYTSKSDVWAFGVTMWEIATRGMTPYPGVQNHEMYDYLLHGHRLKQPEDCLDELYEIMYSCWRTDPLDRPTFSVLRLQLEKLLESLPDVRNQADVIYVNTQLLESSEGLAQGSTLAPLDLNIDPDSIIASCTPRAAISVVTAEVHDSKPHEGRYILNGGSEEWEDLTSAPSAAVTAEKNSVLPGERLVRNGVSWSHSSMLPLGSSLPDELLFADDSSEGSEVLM
Chain of Fyn (P06241 whole entry, looked up): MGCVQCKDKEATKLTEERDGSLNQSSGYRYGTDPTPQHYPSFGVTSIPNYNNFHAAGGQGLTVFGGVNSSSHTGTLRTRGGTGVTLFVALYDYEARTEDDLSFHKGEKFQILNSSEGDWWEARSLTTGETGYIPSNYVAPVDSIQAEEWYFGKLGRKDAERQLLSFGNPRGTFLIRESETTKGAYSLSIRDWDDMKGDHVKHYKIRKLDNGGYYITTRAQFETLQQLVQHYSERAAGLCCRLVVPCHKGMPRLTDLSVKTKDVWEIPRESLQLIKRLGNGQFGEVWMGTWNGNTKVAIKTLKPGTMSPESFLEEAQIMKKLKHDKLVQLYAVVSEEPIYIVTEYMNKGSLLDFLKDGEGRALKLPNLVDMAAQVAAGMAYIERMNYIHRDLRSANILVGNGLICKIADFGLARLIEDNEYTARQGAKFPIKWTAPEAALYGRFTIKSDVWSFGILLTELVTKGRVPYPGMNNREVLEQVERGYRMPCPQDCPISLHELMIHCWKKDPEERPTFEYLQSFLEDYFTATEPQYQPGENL

| Sequence | phosphorylation enrichment [1] | phosphorylation enrichment [2] | phosphorylation enrichment [3] | phosphorylation enrichment [4] | phosphorylation enrichment [5] | phosphorylation enrichment [6] | phosphorylation enrichment [7] | phosphorylation enrichment [8] | phosphorylation enrichment [9] | phosphorylation enrichment [10] | phosphorylation enrichment [11] | phosphorylation enrichment [12] | phosphorylation enrichment [13] | SH2 binding enrichment [14] | SH2 binding enrichment [15] | SH2 binding enrichment [16] |
| --- | --- | --- | --- | --- | --- | --- | --- | --- | --- | --- | --- | --- | --- | --- | --- | --- |
| VRTGIYHGREP [PIK3CA_Y361_G364R] | 0.374 | 0.478 | 0.638 | 0.302 | 0.324 | 0.503 | 0.357 | 0.599 | 0.46 | 0.491 | 0.291 | 0.581 | 0.38 | 0.568 | 0.766 | 1.06 |
| GSERRYSREGG [PTPRN2_Y139] | 0.386 | 0.703 | 0.356 | 0.5 | 0.4 | 0.463 | 0.479 | 0.468 | 0.412 | 0.45 | 0.415 | 0.46 | 0.413 | 0.475 | 0.646 | 0.678 |
| RGDTVYTVNRM [KBTBD13_Y404] | 0.83 | 1.05 | 1.61 | 0.825 | 0.824 | 4.93 | 5.2 | 1.35 | 1.21 | 0.834 | 0.808 | 1.06 | 0.441 | 0.423 | 0.655 | 1.09 |
| FGCGMYSHLQG [LGR4_Y848_D844G_YF] | 0.745 | 1.1 | 1.71 | 0.879 | 0.795 | 2.53 | 0.713 | 1.09 | 0.916 | 1.06 | 3.76 | 1.04 | 0.744 | 1.1 | 0.731 | 0.875 |
| ISDNACQFMLT [MYH7_Y162_Y162C_YF] | 0.51 | 0.946 | 0.606 | 0.712 | 0.588 | 0.448 | 0.597 | 1.21 | 0.877 | 1.04 | 0.448 | 0.696 | 0.615 | 0.419 | 0.687 | 0.692 |
| IKIMGYFIRTI [IDS_Y490_S491F] | 0.547 | 0.932 | 0.497 | 0.432 | 0.479 | 0.424 | 0.402 | 1.08 | 0.785 | 0.93 | 0.514 | 0.813 | 0.561 | 1.04 | 1.5 | 1.82 |
| ERWLKYFPNEQ [HS3ST5_Y244_I247N] | 0.459 | 1.09 | 0.482 | 0.664 | 0.438 | 0.419 | 0.62 | 1.12 | 0.632 | 0.927 | 0.38 | 0.518 | 0.584 | 0.707 | 1.24 | 0.95 |
| LEKRAYICAHP [ACAD9_Y611] | 0.456 | 0.943 | 0.476 | 0.535 | 0.506 | 0.462 | 0.457 | 0.969 | 0.616 | 0.818 | 0.479 | 0.638 | 0.455 | 0.442 | 0.889 | 0.8 |
| AGQEGYDRLRP [RAC1_Y64_D63G] | 0.347 | 0.547 | 0.527 | 0.43 | 0.562 | 0.378 | 0.34 | 0.712 | 0.642 | 0.484 | 0.36 | 0.654 | 0.596 | 0.918 | 0.501 | 0.72 |
| RGNMYYENSYA [EGFR_Y113] | 2.84 | 0.957 | 0.845 | 1.04 | 1.29 | 1.19 | 0.832 | 1.2 | 1.02 | 2.08 | 2.85 | 1.65 | 0.619 | 5.02 | 0.978 | 10.5 |
| ALAQKYHGGGG [HBB_Y146_H144Q] | 0.296 | 0.492 | 0.368 | 0.372 | 0.348 | 0.404 | 0.335 | 0.491 | 0.497 | 0.462 | 0.363 | 0.592 | 0.366 | 0.506 | 0.743 | 0.782 |
| LFMGDYVGRGF [PPP2CA_Y86_D88G_YF] | 0.412 | 1.38 | 1.53 | 2.4 | 0.919 | 2.31 | 1.5 | 1.04 | 0.739 | 3.61 | 0.456 | 1.1 | 1.48 | 0.487 | 0.817 | 1.01 |
| HNLYSYPTKYE [MYO3A_Y1396_H1400Y] | 17 | 2.65 | 8.88 | 10.6 | 0.699 | 2.62 | 5.43 | 0.958 | 0.683 | 0.606 | 14.8 | 2.34 | 16.7 | 1.31 | 0.657 | 0.757 |
| EGLKVYVNGTL [ADGRD1_Y183] | 0.491 | 1.22 | 0.457 | 0.633 | 0.527 | 0.418 | 0.497 | 1.33 | 1.05 | 1.24 | 0.469 | 0.848 | 0.68 | 0.502 | 0.757 | 1.68 |
| AAPAAHDAADT [GAMT_Y27_Y27H] | 0.418 | 0.618 | 0.749 | 0.387 | 0.403 | 0.32 | 0.45 | 0.665 | 0.452 | 0.531 | 0.45 | 0.48 | 0.602 | 0.478 | 0.8 | 1 |
